Patent publication US20200017592A1 (Regeneron, published 2020)

T1: full-length human IL-36R on cells (human, UniProt Q9HB29 20-575)
T1 sequence (looked up): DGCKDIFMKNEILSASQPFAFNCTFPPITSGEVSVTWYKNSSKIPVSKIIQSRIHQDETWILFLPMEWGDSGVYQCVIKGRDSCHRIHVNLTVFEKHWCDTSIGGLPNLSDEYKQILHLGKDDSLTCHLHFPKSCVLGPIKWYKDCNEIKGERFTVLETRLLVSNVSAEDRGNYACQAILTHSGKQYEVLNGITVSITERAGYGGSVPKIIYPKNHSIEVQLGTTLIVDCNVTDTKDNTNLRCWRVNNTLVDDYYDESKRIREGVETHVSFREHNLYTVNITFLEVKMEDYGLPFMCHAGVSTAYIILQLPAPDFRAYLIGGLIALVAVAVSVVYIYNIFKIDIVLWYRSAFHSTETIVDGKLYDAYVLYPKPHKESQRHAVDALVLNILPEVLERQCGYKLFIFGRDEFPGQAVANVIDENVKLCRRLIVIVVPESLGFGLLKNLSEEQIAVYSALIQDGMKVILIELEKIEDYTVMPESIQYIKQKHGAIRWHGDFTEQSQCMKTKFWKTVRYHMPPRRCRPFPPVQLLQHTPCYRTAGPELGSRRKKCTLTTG

T2: Macaca fascicularis IL-36R on cells (Macaca fascicularis, UniProt A0A2K5WSK9 20-558)
T2 sequence: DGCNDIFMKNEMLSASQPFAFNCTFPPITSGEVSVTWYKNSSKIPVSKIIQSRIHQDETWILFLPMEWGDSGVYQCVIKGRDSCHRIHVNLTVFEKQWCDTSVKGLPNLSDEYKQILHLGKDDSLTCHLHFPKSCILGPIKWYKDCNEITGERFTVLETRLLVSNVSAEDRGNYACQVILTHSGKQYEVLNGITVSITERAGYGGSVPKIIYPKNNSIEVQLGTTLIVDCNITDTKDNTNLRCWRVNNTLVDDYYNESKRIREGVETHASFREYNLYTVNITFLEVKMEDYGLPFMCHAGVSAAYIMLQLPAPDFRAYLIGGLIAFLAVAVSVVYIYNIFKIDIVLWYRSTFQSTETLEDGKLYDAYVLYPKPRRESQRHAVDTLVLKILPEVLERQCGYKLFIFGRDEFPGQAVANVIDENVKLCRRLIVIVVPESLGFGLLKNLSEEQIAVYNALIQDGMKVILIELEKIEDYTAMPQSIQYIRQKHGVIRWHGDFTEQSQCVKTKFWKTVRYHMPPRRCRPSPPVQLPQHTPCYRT


Key:
[1] = biological target: T3, recombinant human IL-36R extracellular domain expressed with a C-terminal myc-myc-hexahistidine tag (human, UniProt Q9HB29 20-337); experiment: SPR (Biacore 4000), mAb captured on anti-human Fc, 37°C
T3 construct: also called hIL-36R-MMH; hIL-36R.mmH
Experimental: (§1) Equilibrium dissociation constants (KD values) for IL-36R binding to purified anti-IL-36R antibodies were determined using a real-time surface plasmon resonance biosensor using a Biacore 4000 instrument. The Biacore sensor surface was first derivatized by amine coupling with a monoclonal mouse anti-human Fc antibody (GE, # BR-1008-39) to capture anti-IL-36R monoclonal antibodies. All binding studies were performed in 0.01 M Hepes pH 7.4, 0.15 M NaCl, 3 mM EDTA, and 0.05% v/v Surfactant Tween-20 (HBS-ET running buffer) at 25° C. and 37° C. Different concentrations of IL-36R reagents, human IL-36R extracellular domain expressed with a C-terminal myc-myc-hexahistidine tag (hIL-36R-MMH), Macaca fascicularis IL-36R extracellular domain expressed with a C-terminal myc-myc-hexahistidine tag (mfIL-36R-MMH: mROR1 signal sequence (M1-A29). Macaca fascicularis IL36R_ecto domain (D20-A336).mycmycHis6), human IL-36R extracellular domain expressed with a C-terminal mouse IgG2a Fc tag (hIL-36R-mFc: mROR1 signal sequence (M1-A29)-human IL36R (D20-Y337)-mouse IgG2aFc (E98-K330)) or an in-line fusion protein of human IL-36R extracellular domain and IL1RAcP extracellular domain expressed with mouse IgG2a Fc tag (hIL-36R-Trap-mFc: mROR1 signal sequence (M1-A29)-human IL36R ecto domain (D20-Y337)-human IL1RacP ecto domain(S21-E359)-mouse IgG2aFc) in HBS-ET running buffer (ranging from 100 nM to 3.7 nM, 3-fold dilutions) were injected over the anti-IL-36R antibody captured surface for 4 minutes at a flow rate of 30 μL/minute and their dissociation in HBS-ET running buffer was monitored for 10 minutes. Kinetic association rate constant (kₐ) and dissociation rate constant (kd) were determined by fitting the real-time sensorgrams to a 1:1 binding model using Scrubber 2.0c curve fitting software. Binding dissociation equilibrium constants (KD) and dissociative half-lives (t_{1/2}) were calculated from the kinetic rate constants as: […]

[2] = biological target: T1, full-length human IL-36R on cells; experiment: cell-based or functional assay
[3] = biological target: T3, recombinant human IL-36R extracellular …; experiment: SPR (Biacore 4000), mAb captured on anti-human Fc, 25°C
Experimental: as §1

[4] = biological target: T2, Macaca fascicularis IL-36R on cells; experiment: cell-based or functional assay

Row | 100 nM hIL-36R-MMH Bound (RU) [1] | Kd [1] | koff [1] | kon [1] | t½ [1] | IC50 [M], NFκB-luciferase, 10 pM hIL-36γ [2] | IC50 [M], NFκB-luciferase, 20 pM hIL-36α [2] | Max Inhibition (%), NFκB-luciferase, 10 pM hIL-36γ [2] | Max Inhibition (%), NFκB-luciferase, 20 pM hIL-36α [2] | 100 nM hIL-36R-MMH Bound (RU) [3] | Kd [3] | koff [3] | kon [3] | t½ [3] | IC50 [M], NFκB-luciferase, 300 pM hIL-36γ [4] | IC50 [M], NFκB-luciferase, 600 pM hIL-36β [4] | Max Inhibition (%), NFκB-luciferase, 300 pM hIL-36γ [4] | Max Inhibition (%), NFκB-luciferase, 600 pM hIL-36β [4] | IC50 [M], NFκB-luciferase, 500 pM hIL-36α [4] | Max Inhibition (%), NFκB-luciferase, 500 pM hIL-36α [4] | Binder | other results
1 | 83 RU | 23 nM | 0.00208 s⁻¹ | 90600 M⁻¹ s⁻¹ | 6 min | 7e-10 M | 4.9e-10 M | 49% | 99% | 61 RU | 6.11 nM | 0.000415 s⁻¹ | 67900 M⁻¹ s⁻¹ | 28 min | > 1e-07 M | > 1e-07 M | 43% | 48% | – | – | H4H14760P2 (antibody, human IgG4 S228P, kappa, V domains shown) VH: QVQLVESGGGVVQPGKSLRLSCAASGFTFSNYGIHWVRQAPGKGLEWVAIILYDGSNQHYADSVKGRFTISRDNSKNTLYLQMNNLRAEDTAVYYCARDLDLWSGYYTNGDGMDVWGQGTTVTVSS VL: not shown | –
2 | 34 RU | 27.6 nM | 0.00116 s⁻¹ | 42100 M⁻¹ s⁻¹ | 10 min | > 1e-08 M | > 1e-08 M | 69% | 61% | 26 RU | 13.9 nM | 0.000569 s⁻¹ | 41000 M⁻¹ s⁻¹ | 20 min | > 1e-07 M | > 1e-07 M | 36% | 43% | > 1e-07 M | 47% | H4H14732P2 (antibody, human IgG4 S228P, kappa, V domains shown) VH: EVQLVESGGGLVQPGRSLRLSCAASGFTFDDYAMHWVRQAPGKGLEWVSGINWAGYNIDYADSVKGRFTISRDNAKNSLYLQMNSLRAEDTALYYCAKDMRGFSYGFPFDYWGQGTLVTVSS VL: not shown | IC50 [M], NFκB-luciferase, 15 pM hIL-36β [2]: > 1e-08 M; Max Inhibition (%), NFκB-luciferase, 15 pM hIL-36β [2]: 69%
3 | 129 RU | 5.18 nM | 0.00109 s⁻¹ | 210000 M⁻¹ s⁻¹ | 11 min | 1.3e-10 M | 1.8e-10 M | 87% | 101% | 94 RU | 2.18 nM | 0.000396 s⁻¹ | 182000 M⁻¹ s⁻¹ | 29 min | > 1e-07 M | > 1e-07 M | 25% | 36% | > 1e-07 M | 29% | H4H14757P (antibody, human IgG4 S228P, kappa, V domains shown) VH: EVQLVESGGGLVQPGRSLRLSCTASGFTFDDYAMHWVRQAPGKGLEWVSGIRWNGGSIGYVDSVKGRFTISRDNAKKSLHLQMNSLKTEDTALYYCAKDIGDILTGFYGEYGMDVWGQGTTVTVSS VL: DIQMTQSPSSLSASEGDRVTITCRASQSISSYLNWYQQKAGKAPNLLIYAASSLQSGVPSRFSGSGSGTEYTLTISSLQPEDFATYYCQQSYIIPYTFGQGTKLEIKR | –
